Test results published in a protein production outcome set (Wang et al. 2014).

experiment: label from the status in PepcDB records

Row | Sequence | protein production
1 | MRLIRSVLCSSSAGFGQGFCSPSLRRHLSARFPRGHGNALANFSSCARSRVHAYSSASSATSVGVPVAKMRFIDIGANLLDEMYTGQYNDKPYHPPDLSAVLERAWAAGLEKLMITAGSLKEARAALELAKTDERLYCTVGCHPTRCKEFEDHPGGPEAYLQELLEVLKEGQALGKVVAVGECGLVATDYERLHFCDADTQKKYFEAQFRLAKESGLPMFLHLRAAADDFLDITGRHLGDFPRGGVVHSFDGTAEEAARVLAVPQLAIGINGCSLKTDDNLAVVGGLPLERIMLETDCPWCEIRPTHAGRKHVSAEALAGVTGAKDRKKFMPGCQVKSRNEPANIRQVLEVVAGVKGRTDLEAVADVIFGNTERMFFPTA | failed
2 | MRLLAILILCILVAACDRQAATEELTEARSAFANREWNDAERLLEGYLRRNPEGAQRWEAWNLLVEVAHRVRNDERATVELLETMYLENGSNPERAYDILTRLGELLEAGRDFRRAAEVWPRVLELPGLTPDTRALVSRRLARILVMQRRFPEAEERLKACLDTEGLSTEGRAGCLYDLADLNVASEHLDVAVDLATTLVGLEGLTPELRSQAGFLLADALEQRGRFAEALERFEALRGVYPNDMVIDTRVRHLKGRLGRK | failed
3 | MRLLAKIICLMLWAICVAEDCNELPPRRNTEILTGSWSDQTYPEGTQAIYKCRPGYRSLGNVIMVCRKGEWVALNPLRKCQKRPCGHPGDTPFGTFTLTGGNVFEYGVKAVYTCNEGYQLLGEINYRECDTDGWTNDIPICEVVKCLPVTAPENGKIVSSAMEPDREYHFGQAVRFVCNSGYKIEGDEEMHCSDDGFWSKEKPKCVEISCKSPDVINGSPISQKIIYKENERFQYKCNMGYEYSERGDAVCTESGWRPLPSCEEKSCDNPYIPNGDYSPLRIKHRTGDEITYQCRNGFYPATRGNTAKCTSTGWIPAPRCTLKPCDYPDIKHGGLYHENMRRPYFPVAVGKYYSYYCDEHFETPSGSYWDHIHCTQDGWSPAVPCLRKCYFPYLENGYNQNYGRKFVQGKSIDVACHPGYALPKAQTTVTCMENGWSPTPRCIRVKTCSKSSIDIENGFISESQYTYALKEKAKYQCKLGYVTADGETSGSITCGKDGWSAQPTCIKSCDIPVFMNARTKNDFTWFKLNDTLDYECHDGYESNTGSTTGSIVCGYNGWSDLPICYERECELPKIDVHLVPDRKKDQYKVGEVLKFSCKPGFTIVGPNSVQCYHFGLSPDLPICKEQVQSCGPPPELLNGNVKEKTKEEYGHSEVVEYYCNPRFLMKGPNKIQCVDGEWTTLPVCIVEESTCGDIPELEHGWAQLSSPPYYYGDSVEFNCSESFTMIGHRSITCIHGVWTQLPQCVAIDKLKKCKSSNLIILEEHLKNKKEFDHNSNIRYRCRGKEGWIHTVCINGRWDPEVNCSMAQIQLCPPPPQIPNSHNMTTTLNYRDGEKVSVLCQENYLIQEGEEITCKDGRWQSIPLCVEKIPCSQPPQIEHGTINSSRSSQESYAHGTKLSYTCEGGFRISEENETTCYMGKWSSPPQCEGLPCKSPPEISHGVVAHMSDSYQYGEEVTYKCFEGFGIDGPAIAKCLGEKWSHPPSCIKTDCLSLPSFENAIPMGEKKDVYKAGEQVTYTCATYYKMDGASNVTCINSRWTGRPTCRDTSCVNPPTVQNAYIVSRQMSKYPSGERVRYQCRSPYEMFGDEEVMCLNGNWTEPPQCKDSTGKCGPPPPIDNGDITSFPLSVYAPASSVEYQCQNLYQLEGNKRITCRNGQWSEPPKCLHPCVISREIMENYNIALRWTAKQKLYSRTGESVEFVCKRGYRLSSRSHTLRTTCWDGKLEYPTCAKR | failed
4 | MRLLFSFSCRRRWRERERLRRMREIKMIKLPHKKPIIFFCQLFLIATLIIACHQTTIHTSTNTCTPNYNPNQDYFPNKIKITHARGLAVEYHKHYKVVTIKNPWQNAKTQFQYVLVQCGTPTPQGFKQAQVITVPIHSIVSLSTTHLPHLAKLGVVDKLIGISNSKQVNTPDVVERIKAGKITQVGNNSNVDIERLLELNPDLVTTFGTGNSQTDSYSKLTEAGLKVGINAEYMEDTPLGRSEWLKFTALFFNQEEKAEKIFAEITDKYEQVAQKVKSVKNRPTVFVGFNFKGTWFMPGGNSYVAKYLADAGGDYLWSNEQSAGSLPLSFEVVLERATNADYWLNFSQSWQSLKDLLAEDNRYADFKSVKIGNLYNNNARVNESGGNDYWEGGISNPDIVLSDLIRILHPEILPNHQLFYYHKILK | failed
5 | MRLLVAFAVIYFISISPVCAENTASTINIPTPAIESPLASKSLLLDISLIGQEKLVTVGQHGHILLSNDGKKWQQANVPVQVTLTNVFFLNEQLGWAVGHDATILHSQDGGLNWQVQQYLPLLEKPLFDIYFKNPQQGIAVGAYGQVFRTNDGGSTWQNEFHQEILLADDVEYLNELKAEDEAAYLDEITFILPHFNRLVQDGGSLFLLGETGLLAKSDDFGLTWQQFDNFYQGSFFSLARTKTGNVLVAGLRGHVFRSLNHGSQWDEVPTNTTALLNDIVFANDERIFILGNNGMLLISTDDGESFSKIPQQDGKTLIAGVWFKGQLIAVSDVGIKVVDLSQELEHHHHHH | failed
6 | MRLTGEIMKIITCFKLVPEEQDIVVTPEYTLNFDNADAKISQFDLNAIEAASQLATDDDEIAALTVGGSLLQNSKVRKDVLSRGPHSLYMVQDAQLEHALPLDTAKALATAVEKIGFDLLIFGEGSGDLYAQQVGLLVGELLQLPVINAVSAIQRQGNTLVIERTLEDDVEVIELSVPAVLCVTSDINVPRIPSMKAILGAGKKPVNQWQASDIGWSQSAPLAELTGIRVPPQTKRKHIILDNDSPEAIAELAEHLKKALN | failed
7 | MRLVVLSDIHGNLGAFEAVLADIATQDVDDIISLGDNVGYGPDPGPVLRLLRQRGIDSVLGNHEAAIADRRRRRRFNSQSREALDLTEAWLDADGRACIASMPPVLLRHGCRFVHGMPPDSPFTYLFEFMGRRLPKVFTLFAEALCFVGHTHDLEVLRCDETGAVASVLLPTASPDVAGQMPPGPLPGPSPDATLATSPGAQPEGLTLSTASPRVTVQTLVLDAGARHLVNVGSVGQPRDGDPRAKYVVWDDTARTLTVRRVAYDVAAAVRRFAEAGVAQRYIDRLG | failed
8 | MRLYVMLLSLSLIWGFSFVFIEHLLGIVGVWGTVVVRCFAGAIILLPILLMRRKLFYRPAPWKALMIVGIFNAGLPWGLIALSQTEIYSSTAAVLNALTPLFTGLIGFLLYSNALSRQQWGGIVLGFSGVVVLTGFQLQLLAPEHFVGVGTMILATICYGFASQYVKRHLHDTDVVLITTFSLLFGGLVGLIGMWITDSLHVVRVPLTIDWLSLISIIGLGCLGSGMAHLLYYDLMKKGGPEFATTVTYLIPMTAIIWGKLFLDELITKNIVIGMLMILMGVYFTSRKRNVCSKANEDSNKGELA | failed
9 | MRMIIAFLLGCLGMFLTTGCAFVSVPLMSAPQPLAEQVLEGEGTKKILIVDISGAIGDQAKGGGLLSRGTPSTVSLVREVLLKAERDPKVAGLILRINSPGGTVTASDIIRHDLLAFKERRNLPVSACIMGIGASGGYYVATAADGITAHPTALTGSIGVLLMTFNVEGLLGKVGVEEKTIKSGGKKDLLSPFRRATPEEERLVQGVIDQFHGRFVDVVQARPGNRLSRHDLLTLADGRIFSAADALAAGLIDRIGYLDDVIASLRDRIGDPDARVVTYFRPGSYQGSIYAESAAEPSMADLLGGFDMTGGGQFMYLWRPW | failed
10 | MRMRSGTAVAGVAALAVAGMALTAAFEPVWAHGPTRQKVRESIEINAAPAKVWAVIGNFQDMSWLPPVTKTEGEKGNEIGATRRLTLTGGATVDEELYKFDAAAMTYSYRITAVDVKVLPVTNYSSTLTVTPSADGKGATLEWAGAFYRGFPNNDPPPELSDEAAKTAVSGLYKAGLEALKKKIESGS | failed
11 | MRNCIFYSLVLALLFLIGSCKDSDDNKTTGATYDPNQPVTVESFMPVEGKLREKVIVKGSNFGTDKSKVKVYFVDEAAERLSTVIGIDNNTLYCLAPRQLPGGNRIKVIVDGKEVTTDGTFKYEQAQNVSTISGSASKDGNDDGDLASAKFKYMWGIAAVGNNTVLAYQRDDPRVRLISVDDNKVTTVHPGFKGGKPAVTKDKQRVYSIGWEGTHTVYVYMKASGWAPTRIGQLGSTFSGKIGAVALDETEEWLYFVDSNKNFGRFNVKTQEVTLIKQLELSGSLGTNPGPYLIYYFVDSNFYMSDQNLSSVYKITPDGECEWFCGSATQKTVQDGLREEALFAQPNGMTVDEDGNFYIVDGFKGYCLRKLDILDGYVSTVAGQVDVASQIDGTPLEATFNYPYDICYDGEGGYWIAEAWGKAIRKYAVE | failed
12 | MRNETGGTMVVDLQTDPYNNIHSRHNLSYDLSEGPKPRPKFGNISKTDHDEIFPPDDPIIINSNVTHQRFSSVSASTMSSGPASGEGSPCVMSPWARVSPPWGADFNEDNVLETNGLIGSIVRKEGHIYSLAASGDLLYTGSDSKNIRVWKNLKEHAGFKSSSGLIKAIVIFGDRIFTGHQDGKIRIWKVSKRKPGKHKRVGTLPTFKSMVKSSVNPKHFMEVRRNRNSVKTKHNDAVSSLSLDVELGLLYSSSWDTTIKVWRIADSKCLESIHAHDDAINSVMSGFDDLVFTGSADGTVKVWKRELQGKGTKHTLAQVLLKQENAVTALAVKSQSSIVYCGSSDGLVNYWERSKRSFTGGILKGHKSAVLCLGIAGNLLLSGSADKNICVWRRDPSDKSHQCLSVLTGHMGPVKCLAVEEERACHQGAKASVAEGDRKWIIYSGSLDKSVKVWRVSERMATWKEMDEPAASSERKSSSSPHEGSGAWSSRNVEK | failed
13 | MRNLKDRVLNSLKGNKKDIKISVVVPTYNTELEGLKNLMASIDKQTMNPDEYELVFVDDGSTTDTYERLQEFAETRPNMTVKQIENSGWGSRPRNIATKMAKGEYILYLDHDDTVFPETFERVYNFGKENNLDVVSGKEVRTNGWSWGWKQFSENNPHAEEMGIECLLPMTPHKFYKREFLLENDITFDDGARVLWEDVYFNSKAFIHGAKVGILADYPTYYWIATGANNSSSFGRDPHEKWNQINKLFNFFKDNIKEQRDLDFMLTHWYRSRVLGILGQWLLKNNNERIDIEFNYAKKLAEELIPAYISENLDKNNQVKDYLLRQGDLDSLKKLAQIDAGITALSYVEDAYFKEDKLFFKTSTKMTYEDKEDFFIEKTADRMERILPEEIKSKLPKEFFDYSDDLAEFTYEPSIKGRNSRATWKIDGSTSNVEVVNKKANLYKIEGEMSFSVQINDYILDAADKKQPWDIATRFTGLGYTSHRALTIGKILIKTALINNKTMIVYKNASGLISLDVGSSVRSIVEDSGVKREQILIDKTSGKVTIPLNEIHVFGESLIEGNAELKPVGISDADPINVKAKLIGEANKARVEVLLGDEKLSGEYHLVTNIQGKKDKQQIKITL | failed
14 | MRNLLQKCFKWQWLVCLAVGCCFSSCKDDEESTSGYDPNKPIVLTDFYPPEGKLATQVILNGSNFGDSKENVKVFFNDKEASVISVKDDRMLVLAPKRASTIEDPECVVKVQVHEQIEEYKQTFDYYIQTTVTTLVGGSTSAQVNPTGTIPLSEAQFRANIDRCICVDQDKNVFFLVDNDGKFAAFMLNEEADKLISLKSDINALFNSPVLGYNSKDDIVYQFWANRDSHEVYYFDPKTDYAPTTAISSISWDDPNFPNIEGFGVWAAKCNFTMGPDGKMYSRMLGGNLVRIDVENARGENLTNGDLVGTKDGSAYGLVFDPQDENVFYFSNNDKHCIYKYDLRTKECACWAGQEGKSGYLDGPIGQAMFNKPGQMCVDSEGNIILTDTENHCIRKITMSTGYVSTLAGKPQNSGYVNGSAEDAQFKKPLGICIDNDDVMYIGDSENRAIRRLAVELEHHHHHH | not failed
